Here are results for 17 molecules from article PMC11417369, “DNA sequence and chromatin differentiate sequence-specific transcription factor binding in the human malaria parasite Plasmodium falciparum”.

Sequences and labels used below:
B1: GTGCAC_site9692 (dsDNA)
DNA 1: TATATATGTATAAGAGTGCATATGCATATATGTATA
DNA 2: TATACATATATGCATATGCACTCTTATACATATATA
B2: GTGCAC_site10562 (dsDNA)
DNA 1: TTATTTATTTATATAGTGCAATAAACACATAAATAG
DNA 2: CTATTTATGTGTTTATTGCACTATATAAATAAATAA
B3: GTGCAC_negctrl_site727 (dsDNA)
DNA 1: TTTTTCTTTTTCTTTTTTTCTTTTTTTTTTTTTTTC
DNA 2: GAAAAAAAAAAAAAAAGAAAAAAAGAAAAAGAAAAA
B4: GTGCAC_site10338 (dsDNA)
DNA 1: TGATATAAAATTAAAGTGCAAAAAAAAAATAAAAAA
DNA 2: TTTTTTATTTTTTTTTTGCACTTTAATTTTATATCA
B5: GTGCAC_site10445 (dsDNA)
DNA 1: ACGGAAAAAGAAAAGGTGCATATGGACACAATATAT
DNA 2: ATATATTGTGTCCATATGCACCTTTTCTTTTTCCGT
B6: GTGCAC_site9537 (dsDNA)
DNA 1: TAAATATATATATGTGTGCACTTCTTCATTTTAATA
DNA 2: TATTAAAATGAAGAAGTGCACACATATATATATTTA
B7: GTGCAC_site10031 (dsDNA)
DNA 1: ATAAATAAAACAACAGTGCAATAAAATTAGTTGAGG
DNA 2: CCTCAACTAATTTTATTGCACTGTTGTTTTATTTAT
B8: GTGCAC_site9712 (dsDNA)
DNA 1: GAAAGAAAATATTAAGTGCATATTTTAATGATACAA
DNA 2: TTGTATCATTAAAATATGCACTTAATATTTTCTTTC
B9: GTGCAC_site10123 (dsDNA)
DNA 1: ATACCTATTTGATGAGTGCATTATCCAATATATGTA
DNA 2: TACATATATTGGATAATGCACTCATCAAATAGGTAT
B10: GTGCAC_negctrl_site272 (dsDNA)
DNA 1: AAGTTAGGATAGATCCAATAATTTTTAGTTTCTCTT
DNA 2: AAGAGAAACTAAAAATTATTGGATCTATCCTAACTT
B11: GTGCAC_site10110 (dsDNA)
DNA 1: AGTAGATTTTTATTAGTGCATTTTATACTACAAAAA
DNA 2: TTTTTGTAGTATAAAATGCACTAATAAAAATCTACT
B12: GTGCAC_site9856 (dsDNA)
DNA 1: TTAGCAGGACGTTTGGTGCACGTACTGTTTTTCTTT
DNA 2: AAAGAAAAACAGTACGTGCACCAAACGTCCTGCTAA
B13: GTGCAC_site10125 (dsDNA)
DNA 1: ATATATATGGAAACAGTGCAATACATATATATATAT
DNA 2: ATATATATATATGTATTGCACTGTTTCCATATATAT
B14: GTGCAC_site9933 (dsDNA)
DNA 1: ATCTTATATATATGTGTGCACGTATATATAAGCAAT
DNA 2: ATTGCTTATATATACGTGCACACATATATATAAGAT
B15: GTGCAC_site10124 (dsDNA)
DNA 1: AAAAAAAAAAAATACGTGCACTATGATATATTATAT
DNA 2: ATATAATATATCATAGTGCACGTATTTTTTTTTTTT
B16: GTGCAC_negctrl_site165 (dsDNA)
DNA 1: AATCGATTGGATAATATTTTTTCTCTTAATTTTTTG
DNA 2: CAAAAAATTAAGAGAAAAAATATTATCCAATCGATT
B17: GTGCAC_negctrl_site34 (dsDNA)
DNA 1: AACTTAAAAAAAAAAAAAAAAAAAAAAAAAAAAAAA
DNA 2: TTTTTTTTTTTTTTTTTTTTTTTTTTTTTTTAAGTT

This series deals with T1, HDP1 homeodomain-like (Plasmodium falciparum, UniProt Q8IKH4 2990-3078).
T1 sequence: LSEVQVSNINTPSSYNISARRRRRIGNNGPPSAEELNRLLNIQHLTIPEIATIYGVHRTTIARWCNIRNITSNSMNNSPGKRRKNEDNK
The series is described as follows: gcPBM; about 25 ug protein; PBS, 1% milk, 0.2 mg/ml BSA, salmon testes DNA, 0.03% Triton X-100. To be noted: tags: N-terminal GST (pGEX-4T-1), kept; chain copies: 2; label: surface-attached array probe.
With B1, the binding signal is 8.71 ln median PBM intensity, better of two orientations.
The same measure for B2: 9.14 ln median PBM intensity, better of two orientations.
The same measure for B3: 5.74 ln median PBM intensity, better of two orientations; for B4: 8.82 ln median PBM intensity, better of two orientations; for B5: 9.46 ln median PBM intensity, better of two orientations.
Turning to B6, the binding signal is 9.22 ln median PBM intensity, better of two orientations.
In the case of B7 it was 8.8 ln median PBM intensity, better of two orientations; in that of B8, 8.76 ln median PBM intensity, better of two orientations; in that of B9, 8.94 ln median PBM intensity, better of two orientations.
Turning to B10, the binding signal was 5.7 ln median PBM intensity, better of two orientations.
The same measure for B11: 8.86 ln median PBM intensity, better of two orientations; for B12: 9.34 ln median PBM intensity, better of two orientations; for B13: 9.41 ln median PBM intensity, better of two orientations.
The same measure for B14: 9.28 ln median PBM intensity, better of two orientations; for B15: 9.03 ln median PBM intensity, better of two orientations.
Turning to B16, the binding signal was 5.77 ln median PBM intensity, better of two orientations.
The same measure for B17: 5.77 ln median PBM intensity, better of two orientations.
